In the supplement of paper PMC10567573:

B1: ADAMTSL2 (parent)
chain: KKPPEESTCFERPCFKWYTSPWSE

Variants of: B1
Experiment: protein stability index of a GFP-peptide fusion (GPS, HEK-293T) (PSI 1-6); higher = more stable
Details: c terminus: a fixed tail appended
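Also: lentivirally expressed fusions sorted by FACS into six bins by GFP to DsRed ratio, PSI derived from sequencing read proportions per bin multiplied by bin number.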

Protein stability index of substitutions, site by site:
E6: I 1.87, P 2.05, D 2.8, R 2.05, W 1.87, K 2.55, T 1.84, N 2.08, H 2.06, Y 1.97, M 1.9, L 2.07, C 2.44, S 1.82, G 2.57, Q 2.06
E11: L 1.88, M 1.98, Y 2.19, Q 2.27, K 2.11, A 2.59, N 2.98, F 2.19, I 1.9, R 1.75, C 1.49, H 2.27, V 2.06
K16: V 1.94, I 1.77, F 1.9, T 2.22, M 2.43, L 2.51, C 2.07, W 1.86, Y 1.72, E 3.35, P 2.13, D 3.04, S 2.49
P21: T 2.75, M 1.44, R 2.17, V 2.33, F 1.78, I 2.38, C 2.39, S 1.87, L 2.4, Y 1.73, N 2.16, K 2.7, D 3.04, W 1.68, Q 2.2, G 2.16
K1: S 2.37, H 2.33, G 2.34, D 2.67, W 1.75, R 2.88, F 2.59, C 1.89, I 1.71, E 3.08, M 2.48, T 2.52, P 2.24, Q 2.58, A 2.38
W17: Y 2.86, T 2.9, N 3.42, M 2.9, V 2.52, F 2.88, G 3.35, P 3.5, S 3.33, I 2.46, L 2.37, H 2.57, E 3.19, D 3.6
Y18: W 2.57, R 2.71, I 2.15, E 3.15, C 2.33, N 2.81, A 2.87, G 2.99, F 1.86, M 2.38, S 3.18, Q 2.58, P 3.02
E5: Y 2.01, V 2.48, A 1.92, K 1.45, T 1.67, C 2.32, Q 2, F 1.88, M 1.47, L 2.33, I 2.16, D 2.08, S 2.3
T19: R 2.22, A 2.28, M 2.2, I 2.35, P 2.86, F 2.28, S 3.24, Y 1.84, K 2.03, N 3.43, H 2.65, C 2.13, E 3.38, Q 1.89, L 2.73, W 2.05
C14: A 2.94, Y 2.02, F 2.39, G 3.12, D 3.26, V 2.58, I 2.23, R 3.7, E 2.89, W 1.9, P 3.09, S 2.23, H 2.23, M 2.62
P4: R 2.49, Q 2.72, S 2.21, V 2.77, N 2.19, W 1.75, I 2.26, L 2.04, H 1.94, C 1.95, A 2.93, D 2.69, Y 2.48, E 2.4, K 2.49
E24: M 1.68, L 1.72, T 1.97, Q 2.37, I 1.73, A 2.06, R 1.83, F 2.27, P 2.4, W 2.09, H 2.04, V 1.83
T8: Q 2.79, E 2.69, P 2.59, R 2.14, D 2.61, M 2.45, S 2.77, L 3.01, C 2.17, I 2.32, G 2.37, W 1.7, F 1.74, K 2.89, A 2.75
K2: R 2.61, D 3.01, L 2.73, H 1.96, M 2.72, Y 2.36, S 2.15, T 2.66, C 2.75, Q 2.29, W 2.39, A 3.16, V 2.04, E 2.79
S7: Y 2.64, N 2.24, Q 2.58, I 2.28, G 2.8, F 2.11, M 2.08, C 2.66, W 1.66, L 1.39, P 2.21, A 2.31, H 2.51, E 2.47, D 2.4
S20: R 2.86, K 2.61, F 2.02, Y 2.37, G 2.29, V 1.93, P 2.04, I 2.59, N 2.58, L 1.95, E 2.11, Q 2.35, H 2.25
S23: T 1.87, I 2.6, K 2.53, F 1.69, W 2.19, D 2.48, V 2.23, R 2.22, H 2.55, M 2.04, N 2.5, P 2.6
F15: R 2, D 3.26, V 2.87, C 2.93, K 2.64, M 2.06, H 2.6, Y 2.77, S 2.6, I 2.79, E 3.25, Q 2.63, A 2.75, G 2.25, W 2.25
P13: H 2.21, L 2.09, C 1.84, Q 2.1, T 2.16, R 1.79, Y 1.87, S 2.31, E 2.49, A 2.23, V 1.96
F10: T 3.19, Q 2.54, D 2.89, H 2.99, G 2.71, W 2.09, Y 2.06, C 2.14, V 2.86, M 2.83, E 2.9, I 2.81
P3: F 2, T 2.21, N 2.94, Q 2.67, R 2.46, I 1.93, K 2.18, C 2.08, G 2.34, Y 1.88, L 2.26, H 1.84
C9: Y 2.54, T 2.84, F 2.3, D 2.97, N 2.18, E 3.33, M 2.8, H 2.36, S 2.35, V 2.82, L 2.05, R 2.52, I 2.25, Q 3.34, G 2.63, K 2.69
W22: D 3.79, A 4.34, Y 3.05, L 3.07, C 3.35, F 2.98, G 3.51, P 4, T 3.97, I 3.03, N 3.28, M 2.6, H 3.6, V 3.27, R 2.95, E 4.18
R12: G 2.42, K 2.5, Y 2.84, D 3, A 2.65, C 1.69, P 2.77, S 2.79, W 2.24, T 2.09, H 2.63, Q 2.3, E 2.95
